Data: the supplement of paper PMC9233669
Variants at the floor of the assay were thinned out.

Experiments:
biotinyl-Phe-oxazolone = test: self-aminoacylation, catalytic enhancement (BFO) (fold over background); higher = more active; k-Seq, kA / k0A0; sequences stand for … in GGGAAUGGAUCCACAUCUACGAAUUC…UUCACUGCAGACUUGACGAAGCUG
How it was run: (§1)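 Mutagenized RNA pools with a 21-nt variable region (0.43 μM) were reacted with each biotinyl-aminoacyl-oxazolone at 2–1250 μM for 90 minutes at room temperature, in 50 μL HEPES/NaCl/KCl/MgCl2/CaCl2 buffer containing 5% acetonitrile at pH 6.9–7.0. RNA captured on streptavidin was quantified by triplicate qPCR and by Illumina sequencing. The fraction reacted for each sequence was fit to a pseudo-first-order model with bootstrapping, and catalytic enhancement is the median kA divided by the uncatalyzed rate, taken as the low-activity peak of a bimodal Gaussian fit.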

biotinyl-Ile-oxazolone = test: self-aminoacylation, catalytic enhancement (BIO) (fold over background); higher = more active; k-Seq, kA / k0A0; sequences stand for … in GGGAAUGGAUCCACAUCUACGAAUUC…UUCACUGCAGACUUGACGAAGCUG
How it was run: as §1

biotinyl-Met-oxazolone = test: self-aminoacylation, catalytic enhancement (BMO) (fold over background); higher = more active; k-Seq, kA / k0A0; sequences stand for … in GGGAAUGGAUCCACAUCUACGAAUUC…UUCACUGCAGACUUGACGAAGCUG
How it was run: as §1

biotinyl-Val-oxazolone = test: self-aminoacylation, catalytic enhancement (BVO) (fold over background); higher = more active; k-Seq, kA / k0A0; sequences stand for … in GGGAAUGGAUCCACAUCUACGAAUUC…UUCACUGCAGACUUGACGAAGCUG
How it was run: as §1

biotinyl-Leu-oxazolone = test: self-aminoacylation, catalytic enhancement (BLO) (fold over background); higher = more active; k-Seq, kA / k0A0; sequences stand for … in GGGAAUGGAUCCACAUCUACGAAUUC…UUCACUGCAGACUUGACGAAGCUG
How it was run: as §1

biotinyl-Trp-oxazolone = test: self-aminoacylation, catalytic enhancement (BWO) (fold over background); higher = more active; k-Seq, kA / k0A0; sequences stand for … in GGGAAUGGAUCCACAUCUACGAAUUC…UUCACUGCAGACUUGACGAAGCUG
How it was run: as §1

Row | Sequence | self-aminoacylation (biotinyl-Phe-oxazolone) | self-aminoacylation (biotinyl-Ile-oxazolone) | self-aminoacylation (biotinyl-Met-oxazolone) | self-aminoacylation (biotinyl-Val-oxazolone) | self-aminoacylation (biotinyl-Leu-oxazolone) | self-aminoacylation (biotinyl-Trp-oxazolone)
1 | AUUACUAUGGUCAUCGAGUGA [Fam2.1 aminoacylation ribozyme variant] | 22.6 | 3.32 | 6.37 | 3.31 | 6.66 | 8.33
2 | AUUACUCGGGUCAUCGAGUGA [Fam2.1 aminoacylation ribozyme variant] | 28.6 | 3.66 | 6.51 | 3.33 | 8.09 | 6.64
3 | AUUACUCUCGUCAUCGAGUGA [Fam2.1 aminoacylation ribozyme variant] | 8.87 | 2.11 | 2.92 | 2.09 | 3.39 | 4.11
4 | AUUACUCUGGUCAUCGAAUGA [Fam2.1 aminoacylation ribozyme variant] | 0.918 | 1.19 | 1.45 | 1.09 | 1.3 | 0.832
5 | AUUACUCUGGUCAUCGAGUGC [Fam2.1 aminoacylation ribozyme variant] | 0.969 | 1.1 | 1.19 | 1.05 | 1.42 | 1.32
6 | AUUACUCUGGUCAUCGCGUGA [Fam2.1 aminoacylation ribozyme variant] | 117 | 8.13 | 16.4 | 8.12 | 17.7 | 18.3
7 | AUUACUCUGGUUAUCGAGUGA [Fam2.1 aminoacylation ribozyme variant] | 51.3 | 4.17 | 8.17 | 4.2 | 8.76 | 10.5
8 | AUUAGCAUGGUCAUCGAGUGA [Fam2.1 aminoacylation ribozyme variant] | 3.31 | 2.87 | 3.11 | 2.64 | 3.39 | 3.81
9 | AUUAGCCCGGUCAUCGAGUGA [Fam2.1 aminoacylation ribozyme variant] | 55.9 | 3.45 | 6.23 | 3.57 | 6.64 | 7.74
10 | AUUAGCCUAGGUCAUCGGGUG [Fam2.2 aminoacylation ribozyme variant] | 219 | 19 | 30.9 | 15.8 | 41.9 | 23.3
11 | AUUAGCCUGGUAAUCGAGUGA [Fam2.1 aminoacylation ribozyme variant] | 75.9 | 5.28 | 11.6 | 5.07 | 13.3 | 12.8
12 | AUUAGCCUGGUCAACGAGUGA [Fam2.1 aminoacylation ribozyme variant] | 18.2 | 3.71 | 5.21 | 3.45 | 5.61 | 6.82
13 | AUUAGCCUGGUCACCGAGUGA [Fam2.1 aminoacylation ribozyme variant] | 58.3 | 4.14 | 8.98 | 4.65 | 11.5 | 11.4
14 | AUUAGCCUGGUCAUCCAGUGA [Fam2.1 aminoacylation ribozyme variant] | 10.8 | 2.69 | 4.07 | 2.62 | 4.36 | 5.21
15 | AUUAGCCUGGUCAUCGAAUGA [Fam2.1 aminoacylation ribozyme variant] | 1.23 | 1.36 | 1.43 | 1.39 | 1.48 | 1.27
16 | AUUAGCCUGGUCAUCGACUGA [Fam2.1 aminoacylation ribozyme variant] | 1.59 | 1.22 | 1.21 | 1.04 | 1.13 | 0.565
17 | AUUAGCCUGGUCAUCGAGAGA [Fam2.1 aminoacylation ribozyme variant] | 1.49 | 1.63 | 1.08 | 1.25 | 1.43 | 1.35
18 | AUUAGCCUGGUCAUCGAGGGA [Fam2.1 aminoacylation ribozyme variant] | 2.28 | 2.08 | 1.49 | 2.4 | 2.52 | 3.19
19 | AUUAGCCUGGUCCUCGAGUGA [Fam2.1 aminoacylation ribozyme variant] | 36.7 | 2.67 | 4.69 | 2.84 | 5.41 | 5.08
20 | AUUAGCCUGGUGAUCGAGUGA [Fam2.1 aminoacylation ribozyme variant] | 41.1 | 3.98 | 7.43 | 3.62 | 7.61 | 8.57
21 | AUUAUCCUAGGUCAUCGGGUG [Fam2.2 aminoacylation ribozyme variant] | 54.6 | 6.74 | 9.84 | 5.98 | 14.5 | 9.09
22 | AUUAUCCUGGCCAUCGAGUGA [Fam2.1 aminoacylation ribozyme variant] | 13.8 | 1.92 | 2.99 | 1.69 | 2.98 | 2.77
23 | AUUAUCCUGGGCAUCGAGUGA [Fam2.1 aminoacylation ribozyme variant] | 36.3 | 3.07 | 5.87 | 2.94 | 6.24 | 6.86
24 | AUUAUCCUGGUAAUCGAGUGA [Fam2.1 aminoacylation ribozyme variant] | 96.5 | 5.94 | 13.3 | 5.97 | 14.5 | 16.5
25 | AUUAUCCUGGUCAUCAAGUGA [Fam2.1 aminoacylation ribozyme variant] | 10.1 | 2.3 | 3.84 | 2.2 | 3.5 | 4.39
26 | AUUAUCCUGGUCAUCGACUGA [Fam2.1 aminoacylation ribozyme variant] | 0.418 | 0.875 | 0.65 | 0.785 | 0.941 | 0.498

Row | Sequence | self-aminoacylation (biotinyl-Phe-oxazolone) | self-aminoacylation (biotinyl-Ile-oxazolone) | self-aminoacylation (biotinyl-Met-oxazolone) | self-aminoacylation (biotinyl-Val-oxazolone) | self-aminoacylation (biotinyl-Leu-oxazolone) | self-aminoacylation (biotinyl-Trp-oxazolone)
27 | AUUAUCCUGGUCAUCGAGUGG [Fam2.1 aminoacylation ribozyme variant] | 6.09 | 2.19 | 5.06 | 2.27 | 5.03 | 4.05
28 | AUUCAACUAGGUCAACGGGUG [Fam2.2 aminoacylation ribozyme variant] | 25.5 | 2.4 | 4.31 | 2.31 | 4.91 | 3.38
29 | AUUCAACUAGGUCAGCGGGUG [Fam2.2 aminoacylation ribozyme variant] | 32.2 | 3.15 | 4.12 | 3.29 | 5.11 | 5.13
30 | AUUCAACUAGGUCAUCGAGUG [Fam2.2 aminoacylation ribozyme variant] | 2.85 | 1.55 | 2.2 | 1.45 | 3.13 | 1.84
31 | AUUCAACUAGGUCAUCGGAUG [Fam2.2 aminoacylation ribozyme variant] | 0.801 | 0.675 | 0.66 | 0.708 | 0.772 | 0.549
32 | AUUCAACUAGGUGAUCGGGUG [Fam2.2 aminoacylation ribozyme variant] | 21.9 | 3.02 | 3.11 | 2.76 | 4.01 | 4.01
33 | AUUCAACUCGGUCAUCGGGUG [Fam2.2 aminoacylation ribozyme variant] | 67.4 | 4.15 | 6.48 | 3.84 | 9.77 | 7.4
34 | AUUCAACUUGGUCAUCGGGUG [Fam2.2 aminoacylation ribozyme variant] | 34.1 | 3.85 | 5.25 | 3.29 | 6.72 | 4.45
35 | AUUCACAUAAGUCAUCGGGUG [Fam2.2 aminoacylation ribozyme variant] | 95.4 | 7.61 | 11.8 | 6.79 | 18.3 | 12.4
36 | AUUCACAUACGUCAUCGGGUG [Fam2.2 aminoacylation ribozyme variant] | 53.4 | 4.62 | 7.22 | 4.19 | 9.26 | 6.74
37 | AUUCACAUAGGGCAUCGGGUG [Fam2.2 aminoacylation ribozyme variant] | 20.9 | 3.83 | 4.4 | 3.39 | 3.62 | 4.52
38 | AUUCACAUAGGUCAGCGGGUG [Fam2.2 aminoacylation ribozyme variant] | 22.6 | 3.26 | 3.83 | 2.91 | 4.15 | 5.03
39 | AUUCACAUAGGUCAUCGGAUG [Fam2.2 aminoacylation ribozyme variant] | 0.549 | 0.903 | 0.698 | 0.857 | 0.649 | 0.403
40 | AUUCACAUCGGUCAUCGGGUG [Fam2.2 aminoacylation ribozyme variant] | 57.5 | 4.36 | 8.09 | 4.81 | 9.09 | 5.93
41 | AUUCACCAAGCUCAUCGGGUG [Fam2.2 aminoacylation ribozyme variant] | 9.43 | 2.4 | 2.13 | 2.92 | 2.92 | 1.79
42 | AUUCACCAAGGACAUCGGGUG [Fam2.2 aminoacylation ribozyme variant] | 30 | 3.2 | 4.65 | 3.27 | 4.96 | 4.17
43 | AUUCACCAAGGUCAUCCGGUG [Fam2.2 aminoacylation ribozyme variant] | 59.6 | 5.51 | 7.8 | 4.96 | 11.4 | 7.89
44 | AUUCACCAAGGUCAUCGCGUG [Fam2.2 aminoacylation ribozyme variant] | 132 | 7.86 | 16 | 8.42 | 20.7 | 12.6
45 | AUUCACCAAGGUCAUCGGCUG [Fam2.2 aminoacylation ribozyme variant] | 8.8 | 2.06 | 2.21 | 1.92 | 2.66 | 1.78
46 | AUUCACCAAGGUCAUCGGGUA [Fam2.2 aminoacylation ribozyme variant] | 22.5 | 3.77 | 2.43 | 3.04 | 3.23 | 4.89
47 | AUUCACCAAGGUCAUGGGGUG [Fam2.2 aminoacylation ribozyme variant] | 77.3 | 6.16 | 9.1 | 5.88 | 12.7 | 8.64
48 | AUUCACCAAGGUCGUCGGGUG [Fam2.2 aminoacylation ribozyme variant] | 12.9 | 2.09 | 2.2 | 2.58 | 3.05 | 2.29
49 | AUUCACCCAAGUCAUCGGGUG [Fam2.2 aminoacylation ribozyme variant] | 92.9 | 5.59 | 11 | 5.86 | 14.8 | 10.1
50 | AUUCACCCAGAUCAUCGGGUG [Fam2.2 aminoacylation ribozyme variant] | 7.26 | 1.85 | 1.82 | 2.26 | 2.43 | 1.84
51 | AUUCACCCAGGCCAUCGGGUG [Fam2.2 aminoacylation ribozyme variant] | 34.1 | 3.35 | 3.79 | 3.7 | 6.14 | 5.24
